Reference: paper PMC9597577, “Mutant Ras and inflammation-driven skin tumorigenesis is suppressed via a JNK-iASPP-AP1 axis” (Cell Reports, 2022)

Tests used:
ASPP1 CTD (887–1090) [1] = target: T1, ASPP1 CTD (887–1090) (Homo sapiens (Human), UniProt Q96KQ4); assay: ITC
T1 chain: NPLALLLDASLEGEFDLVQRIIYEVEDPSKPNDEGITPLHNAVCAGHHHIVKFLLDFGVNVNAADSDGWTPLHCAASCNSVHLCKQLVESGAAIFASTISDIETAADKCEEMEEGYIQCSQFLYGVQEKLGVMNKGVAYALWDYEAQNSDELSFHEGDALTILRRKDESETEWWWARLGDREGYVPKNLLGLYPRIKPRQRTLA

ASPP1 CTD (887–1090) [2] = target: T2, ASPP1 CTD (887–1090) (Homo sapiens (Human), UniProt Q96KQ4); assay: ITC
T2 chain: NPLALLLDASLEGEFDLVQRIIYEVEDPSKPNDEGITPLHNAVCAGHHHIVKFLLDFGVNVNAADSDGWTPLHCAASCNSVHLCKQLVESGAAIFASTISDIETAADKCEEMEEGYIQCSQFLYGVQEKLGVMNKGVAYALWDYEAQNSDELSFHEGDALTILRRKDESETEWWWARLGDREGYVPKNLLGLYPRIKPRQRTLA

iASPP CTD (625–828) = target: T3, iASPP CTD (625–828) (UniProt Q8WUF5 625-828); assay: ITC
T3 chain: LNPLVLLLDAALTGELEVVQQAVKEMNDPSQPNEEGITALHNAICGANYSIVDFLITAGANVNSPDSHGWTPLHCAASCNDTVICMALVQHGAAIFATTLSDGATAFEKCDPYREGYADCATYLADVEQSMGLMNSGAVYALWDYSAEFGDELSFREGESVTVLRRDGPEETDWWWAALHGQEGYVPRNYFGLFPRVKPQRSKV

[3] = target: T4, Halo-tagged iASPP CTD (625–828) (UniProt Q8WUF5 625-828); assay: pull-down; displacement pull-down: 25 μM JunD or PP1 peptide added to Halo-iASPP CTD on magnetic Halo beads, read by loss of in vitro translated Myc-tagged protein; conditions: both partners purified
T4 construct: iASPP C-terminal domain (CTD) with the SH3 domain, residues 625-828; also called iASPP CTD fused to Halo-Tag; not shown: HaloTag, N-terminal, kept
T4 sequence (looked up): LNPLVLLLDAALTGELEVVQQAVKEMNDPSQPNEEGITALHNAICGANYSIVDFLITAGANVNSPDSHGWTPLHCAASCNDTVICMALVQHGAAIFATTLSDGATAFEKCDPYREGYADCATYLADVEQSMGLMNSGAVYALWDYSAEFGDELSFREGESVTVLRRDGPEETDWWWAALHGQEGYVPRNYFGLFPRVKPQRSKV

Binder | binding result (ASPP1 CTD (887–1090) [1]) | binding result (ASPP1 CTD (887–1090) [2]) | Kd (iASPP CTD (625–828)) [µM] | binding result [3]
WLKPAAAPPPTPLRADGAPSA [JunD peptide (WLKPAAAPPPTPLRADGAPSA)] | no binding | no binding | 4.58 | –
WNPGGRPITPPRNSA (leading tryptophan; PxxP-containing peptide derived from the phosphatase PP1 (PP1alpha), C-terminal tail; also called PP1 peptide; source: synthetic peptide (TUCF, custom made)) [PP1alpha peptide (WNPGGRPITPPRNSA)] | – | – | – | binds
